B1: mim-A (dsDNA)
DNA 1: AGCGCTAAAAAACCGTTATAATGTGCAGAT
DNA 2: ATCTGCACATTATAACGGTTTTTTAGCGCT
B2: mim-C (dsDNA)
DNA 1: GTTGATTTCCATCTGTTATTTGAGCTAAG
DNA 2: CTTAGCTCAAATAACAGATGGAAATCAAC

Key:
[1] = biological target: c-Myb R2R3 (chicken, UniProt P01103 87-193); assay: EMSA
[2] = biological target: T1, His6-Ovol1 (UniProt Q9WTJ2 1-267); assay: competition
[3] = biological target: T1, His6-Ovol1; assay: EMSA

T1 sequence (Q9WTJ2 whole entry): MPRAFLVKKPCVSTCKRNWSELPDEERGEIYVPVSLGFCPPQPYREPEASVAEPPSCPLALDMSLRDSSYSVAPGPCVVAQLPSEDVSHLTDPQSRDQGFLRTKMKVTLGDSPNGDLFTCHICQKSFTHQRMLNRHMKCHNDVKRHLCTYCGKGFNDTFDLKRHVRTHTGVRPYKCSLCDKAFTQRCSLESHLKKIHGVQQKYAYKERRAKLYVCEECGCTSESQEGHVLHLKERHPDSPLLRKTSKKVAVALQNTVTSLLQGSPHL
Chain of c-Myb R2R3 (P01103 87-193): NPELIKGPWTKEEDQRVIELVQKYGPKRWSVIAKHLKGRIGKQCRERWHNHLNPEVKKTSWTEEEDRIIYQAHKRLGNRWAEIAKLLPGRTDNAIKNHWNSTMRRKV

Binder	binding result [1]	binding result [2]	binding result [3]
B1	binds	binds	
B2			no binding

— publication PMC1865076
